Measurements taken from PMC4338369.

Target: alkyl hydroperoxide reductase subunit C (peroxiredoxin) from Amphibacillus xylanus (Amphibacillus xylanus) (UniProt K0J4Q8)
Test: SPR

kon: 29 M⁻¹ s⁻¹
Substance: NADH oxidase from Amphibacillus xylanus (enzyme)
